From article PMC9769551 come the findings set out here.

The data set deals with T1, AcrR (Escherichia coli BW25113) (UniProt P0ACS9).
T1 sequence: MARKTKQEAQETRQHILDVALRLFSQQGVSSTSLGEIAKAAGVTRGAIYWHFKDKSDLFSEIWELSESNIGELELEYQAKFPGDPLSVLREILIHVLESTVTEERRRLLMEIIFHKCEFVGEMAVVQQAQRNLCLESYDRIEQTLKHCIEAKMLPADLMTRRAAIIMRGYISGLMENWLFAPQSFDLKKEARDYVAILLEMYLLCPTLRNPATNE
As to the kind of experiment: EMSA. The conditions noted are these: 10 mM Tris-HCl pH 7.5, 50 mM KCl, 1 mM DTT, 5 mM MgCl2, 1 ug poly(dI-dC), 0.05% NP-40, 5% glycerol, 20 uL with 25 fmol DNA (protein stock in 200 mM NaCl, 20 mM …). For orientation: A gel shift assay detects complexes by their altered migration in electrophoresis.
Regarding “CTTTGATAGTCATATATTCCACCAGCTATTTGTTAGTGAATAAAAGGTTGCCTGTAAAATTACAAAAACCTTACGCAGCGTCAAGCGGAATCGTGTCAATCATTGCGACAAATCAATCCTGTGCCTAAGCATTACGCGACTGACTCGCCTCACTCTTCCTTTGGGCTTGAGACCACATGGGGTCGGCGCCCCGAATTTTAAAGGGCAATTACGATAAAAATGTGATTTTCATCACGATTTAGGTGCAGC (double strand) [gapAp 249 bp]”, the binding result is recorded as “no binding”.

In the case of “GTGGACTAAATTATCGCCATTACTGCGCTTTAAATGACCTTTATGTTCAATATTTTTTCAATCTAGCAGTGGGTTTTCATTTTTGCAAACTCAATTTAACATTTGACAAACATTTAGTTTGCATACAGATTCGAATGGTGGTCATTATATTTTACGCTTTGATAACGAGCGGAAAACAAACCAAAGGCGAAGAATCATGGAAACCAATATCGTTGAAGTAGAGAAC (double strand) [puuAp 226 bp]”, the binding entry is given as “binds”.

Regarding “CAAAGTAAAGTGGTCAAGCCCCGCGCATAGCGCAAGCTTTGGCAGAAGAAAGGACTAAAGCGCGTTGCGCCAGTGCTGCTCACCTACGAGCAAGATAGTGGATGAGGTACGAAGATGGGTAAATGTAGAAAATAACGTCCTGAACAAATTGTCCATAATATTACAATTATCCGCAGTGTTGCTTCTCGTCATCGCGGATGATAATTGTCCTCGGTAGTTGAACACGCCTGATTTGTATCATAGCTTAAGAATTAACTCAAAATATTTTCACTTCTTTACCTGAGCG (double strand) [mdtUJIp 286 bp]”, the binding entry is on record as “binds”.

Take “TGTTCATATGTAAACCTCGAGTGTCCGATTTCAAATTGGTCAATGGTCAAAAGTTAATAAACCCATTGCTGCGTTTATATTATCGTCGTGCTATGGTACATACATTCACAAATGTATGTAAATCTAACGCCTGTAAATTCACGAACATATGGCACGAAAAACCAAACAAGAAGCGCAAG (double strand) [acrABp 179 bp]”: the binding entry is recorded as “binds”.
